Measurements as given in PMC8571082.

B1: factor inhibiting HIF-1 (FIH-1), full-length [human] / Mint3NT, N-terminal fragment (1–214) of Mint3 [human] (parent)
chain 1: MDFPTISRSPSGPPAMDLEGPRDILVPSEDLTPDSQWDPMPGGPGSLSRMELDESSLQELVQQFEALPGDLVGPSPGGAPCPLHIATGHGLASQEIADAHGLLSAEAGRDDLLGLLHCEECPPSQTGPEEPLEPAPRLLQPPEDPDEDSDSPEWVEGASAEQEGSRSSSSSPEPWLETVPLVTPEEPPAGAQSPETLASYPAPQEVPGPCDHED
chain 2: MAATAAEAVASGSGEPREEAGALGPAWDESQLRSYSFPTRPIPRLSQSDPRAEELIENEEPVVLTDTNLVYPALKWDLEYLQENIGNGDFSVYSASTHKFLYYDEKKMANFQNFKPRSNREEMKFHEFVEKLQDIQQRGGEERLYLQQTLNDTVGRKIVMDFLGFNWNWINKQQGKRGWGQLTSNLLLIGMEGNVTPAHYDEQQNFFAQIKGYKRCILFPPDQFECLYPYPVHHPCDRQSQVDFDNPDYERFPNFQNVVGYETVVGPGDVLYIPMYWWHHIESLLNGGITITVNFWYKGAPTPKRIEYPLKAHQKVAIMRNIEKMLGEALGNPQEVGPLLNTMIKGRYN

Variants of: B1
Assay: ITC
Details: with Mint3NT, measured three times for each FIH-1 mutant

Variant	screen value [kcal/mol]
chain 2 D248A	-28.4
chain 2 E29A	19.5
chain 2 E79A	-28.5
chain 2 E250A	20.1
chain 2 K75A	20.2
chain 2 N171A	21.4
chain 2 Y71A	-28.9
